Legend:
Nsp12T;Nsp7;Nsp8 = Nsp12T;Nsp7;Nsp8 (SARS-CoV-2;SARS-CoV-2;SARS-CoV-2, UniProt P0DTD1;P0DTD1;P0DTD1 4393-5324;3860-3942;3943-4140, ||); experiment: EMSA
Nsp12A;Nsp7;Nsp8 = Nsp12A;Nsp7;Nsp8 (SARS-CoV-2;SARS-CoV-2;SARS-CoV-2, UniProt P0DTD1;P0DTD1;P0DTD1 4393-5324;3860-3942;3943-4140, ||); experiment: EMSA; 2 mM Mg2+; 100 nM RNA

UUUUCAUGCUACGCGUAGUUUUCUACGCG (structured_RNA) [4N RNA hairpin scaffold]: binds (Nsp12T;Nsp7;Nsp8); binds (Nsp12A;Nsp7;Nsp8).
